From patent US20080032340A1 (UNIVERSITY OF ARIZONA, published 2008)
Bridges are numbered along the chain shown (N, C = ends). Where no end group is shown, it is not given here.

What was measured:
NeutrAvidin [1] = target: T1, NeutrAvidin (UniProt P02701 25-152, chemically deglycosylated and chemically modified to a more neutral isoelectric point (pI=6.3)); experiment: HABA competition, 50 µM HABA-NeutrAvidin complex, absorbance at 500 nm, IC50 converted by Cheng-Prusoff
T1 construct: Bought from Pierce; also called NA; deglycosylated avidin
Method: (§1) After 60 minutes, the absorbance of the complex was monitored at 500 nm. To calculate the IC₅₀s of the selected peptides, the average of three separate trials were fitted to the Hill equation,
(§2) Best fit equations were calculated using KaleidaGraph (Synergy Software).

streptavidin = target: T2, streptavidin (UniProt P22629 37-163, limits assumed); experiment: HABA competition, 50 µM HABA-streptavidin complex, absorbance at 500 nm
T2 construct: Bought from Pierce; Used free in solution in the HABA assay and immobilized on agarose resin in the fusion protein experiments; also called agarose immobilized streptavidin
Method: (§3) FIG. 1: Competitive ligand binding analysis of […] Error bars indicate the standard deviation of three separate assays.
After 60 minutes, the absorbance of the complex was monitored at 500 nm. To calculate the IC₅₀s of the selected peptides, the average of three separate trials were fitted to the Hill equation, […]

avidin = target: T3, avidin (hen egg white (chicken), UniProt P02701 25-152, glycosylated native state); experiment: HABA competition, 50 µM HABA-avidin complex, absorbance at 500 nm, IC50 converted by Cheng-Prusoff
T3 construct: Bought from Pierce; also called glycosylated parent of NeutrAvidin
Method: as §1, §2

NeutrAvidin [2] = target: T1, NeutrAvidin; experiment: HABA competition, uncyclized peptides (the filing cites 'FIG. 3B'; FIG. 1B holds these curves)
Method: as §3, §1, §2

B1: cyclized CDRASPYCG (SEQ ID NO: 7) (peptide)
peptide: CDRASPYCG-NH2
modifications: disulfide 1-8; N-terminus assumed
SMILES: C[C@@H]1NC(=O)[C@H](CCCNC(=N)N)NC(=O)[C@H](CC(=O)O)NC(=O)[C@@H](N)CSSC[C@@H](C(=O)NCC(N)=O)NC(=O)[C@H](Cc2ccc(O)cc2)NC(=O)[C@@H]2CCCN2C(=O)[C@H](CO)NC1=O
notes: Synthetic peptide from Fmoc synthesis on RinkAmide resin, oxidised in PBS with 10% DMSO; also called cyclic DRASPY peptide
B1 showed a Kd (NeutrAvidin [1]) of 31.5 µM, a Kd (streptavidin) greater than 5000 µM and a Kd (avidin) of 44.9 µM.

B2: uncyclized CDRATPYCG (SEQ ID NO: 9) (peptide)
peptide: CDRATPYCG-NH2
modifications: cysteine pairing not given here
notes: Same peptide as m2, used as the linear form; also called linear DRATPY peptide; acyclic counterpart
Binder B2 has a Kd (NeutrAvidin [2]) of less than 500 µM.

B3: cyclized CDRATPYCG (SEQ ID NO: 9) (peptide)
peptide: CDRATPYCG-NH2
modifications: disulfide 1-8; N-terminus assumed
SMILES: C[C@@H]1NC(=O)[C@H](CCCNC(=N)N)NC(=O)[C@H](CC(=O)O)NC(=O)[C@@H](N)CSSC[C@@H](C(=O)NCC(N)=O)NC(=O)[C@H](Cc2ccc(O)cc2)NC(=O)[C@@H]2CCCN2C(=O)[C@H]([C@@H](C)O)NC1=O
notes: Synthetic peptide from Fmoc synthesis on RinkAmide resin, oxidised in PBS with 10% DMSO; also called cyclic DRATPY peptide
Work on B3 yielded a Kd (NeutrAvidin [1]) of 12.5 µM, a Kd (streptavidin) greater than 5000 µM and a Kd (avidin) of 28.1 µM.

B4: uncyclized CDRASPYCG (SEQ ID NO: 7) (peptide)
peptide: CDRASPYCG-NH2
modifications: cysteine pairing not given here
notes: Same peptide as m1, used as the linear form; also called linear DRASPY peptide; acyclic counterpart
Binder B4 has a Kd (NeutrAvidin [2]) of less than 500 µM.

B5: cyclized CDLASPWCG (SEQ ID NO: 5) (peptide)
peptide: CDLASPWCG-NH2
modifications: disulfide 1-8; N-terminus assumed
SMILES: CC(C)C[C@@H]1NC(=O)[C@H](CC(=O)O)NC(=O)[C@@H](N)CSSC[C@@H](C(=O)NCC(N)=O)NC(=O)[C@H](Cc2c[nH]c3ccccc23)NC(=O)[C@@H]2CCCN2C(=O)[C@H](CO)NC(=O)[C@H](C)NC1=O
notes: Synthetic peptide from Fmoc synthesis on RinkAmide resin, oxidised in PBS with 10% DMSO; also called cyclic DLASPW peptide
For B5, the Kd (NeutrAvidin [1]) was 62.8 µM, the Kd (streptavidin) was greater than 5000 µM and the Kd (avidin) was 46.2 µM.
